Test [1] deals with T1, PRAME (PRAME-004) peptide on HLA-A*02:01 (human).
T1 peptide: SLLQHLIGL
Nature of the test: IFN-gamma release; RNA-electroporated CD8+ T cells; T2 cells loaded with 10 µM to 10 pM peptide (FIG. 17); full-length, on cells.

The target of test [2] is T1, PRAME (PRAME-004) peptide on HLA-A*02:01. Nature of the test: multimer staining.
Test [3] shares this target. Nature of the test: IFN-gamma release; RNA-electroporated CD8+ T cells; T2 cells loaded with 10 µM to 10 pM peptide (FIG. 18); full-length, on cells.

Here are results for three molecules from patent publication US20200123221A1 (published 2020).

B1: R16P1E8 (TCR, V domains shown)
Valpha: QKEVEQDPGPLSVPEGAIVSLNCTYSNSAFQYFMWYRQYSRKGPELLMYTYSSGNKEDGRFTAQVDKSSKYISLFIRDSQPSDSATYLCAMSEAAGNKLTFGGGTRVLVKP
Vbeta: EAGVAQSPRYKIIEKRQSVAFWCNPISGHATLYWYQQILGQGPKLLIQFQNNGVVDDSQLPKDRFSAERLKGVDSTLKIQPAKLEDSAVYLCASSYTNQGEAFFGQGTRLTVV
Take B1: in test [1], the EC50 of peptide was roughly 1000 nM.

B2: R17P1A9 (TCR, V domains shown)
Valpha: QKEVEQNSGPLSVPEGAIASLNCTYSDRGSQSFFWYRQYSGKSPELIMSIYSNGDKEDGRFTAQLNKASQYVSLLIRDSQPSDSATYLCAVLNQAGTALIFGKGTTLSVSS
Vbeta: DSGVTQTPKHLITATGQRVTLRCSPRSGDLSVYWYQQSLDQGLQFLIQYYNGEERAKGNILERFSAQQFPDLHSELNLSSLELGDSALYFCASSAETGPWLGNEQFFGPGTRLTVL
For B2, the binding result in test [2] was “recognises”.

B3: R17P1D7 (TCR, V domains shown)
Valpha: AQTVTQSQPEMSVQEAETVTLSCTYDTSESDYYLFWYKQPPSRQMILVIRQEAYKQQNATENRFSVNFQKAAKSFSLKISDSQLGDAAMYFCAYRWAQGGSEKLVFGKGTKLTVNP
Vbeta: EADIYQTPRYLVIGTGKKITLECSQTMGHDKMYWYQQDPGMELHLIHYSYGVNSTEKGDLSSESTVSRIRTEHFPLTLESARPSHTSQYLCATELWSSGGTGELFFGEGSRLTVL
For B3, the EC50 of peptide in test [3] was 1.83 nM.
